Publication PMC8060872
pKd: −log10 of the molar value.

Tests used:
Experiment in all cases: AUC
[1] = molecular target: C-terminally truncated SARS-CoV main protease Δ(293–306) (SARS-CoV)
[2] = molecular target: N-terminally truncated SARS-CoV main protease Δ(1–5) (SARS-CoV)
[3] = molecular target: N-terminally truncated SARS-CoV main protease Δ(1–4) (SARS-CoV)
[4] = molecular target: N-terminally truncated SARS-CoV main protease Δ(1–7) (SARS-CoV)
[5] = molecular target: C-terminally truncated SARS-CoV main protease Δ(201–306) (SARS-CoV)
[6] = molecular target: N-terminally truncated SARS-CoV main protease Δ(1–6) (SARS-CoV)

C-terminally truncated SARS-CoV main protease Δ(293–306) (domain or fragment)
pKd [1]: 3.79

N-terminally truncated SARS-CoV main protease Δ(1–5) (domain or fragment)
pKd [2]: 4.45

N-terminally truncated SARS-CoV main protease Δ(1–4) (domain or fragment)
pKd [3]: 4.24

N-terminally truncated SARS-CoV main protease Δ(1–7) (domain or fragment)
pKd [4]: 3.45

C-terminally truncated SARS-CoV main protease Δ(201–306) (domain or fragment)
pKd [5]: 2.10

N-terminally truncated SARS-CoV main protease Δ(1–6) (domain or fragment)
pKd [6]: 3.82
